Assay results reported in article PMC4361902 (Nature, 2014).

Columns and labels:
[1] = target: the molecule itself; experiment: cryo-EM structure
[2] = target: the molecule itself; experiment: crystal structure

Protein	stoichiometry N [1]	stoichiometry N [2]
AcrB as it stands in the efflux pump assembly (AcrB moiety of the AcrA-AcrB fusion) (domain or fragment, E. coli, UniProt P31224 1-1047, looked up) MPNFFIDRPIFAWVIAIIIMLAGGLAILKLPVAQYPTIAPPAVTISASYPGADAKTVQDTVTQVIEQNMNGIDNLMYMSSNSDSTGTVQITLTFESGTDADIAQVQVQNKLQLAMPLLPQEVQQQGVSVEKSSSSFLMVVGVINTDGTMTQEDISDYVAANMKDAISRTSGVGDVQLFGSQYAMRIWMNPNELNKFQLTPVDVITAIKAQNAQVAAGQLGGTPPVKGQQLNASIIAQTRLTSTEEFGKILLKVNQDGSRVLLRDVAKIELGGENYDIIAEFNGQPASGLGIKLATGANALDTAAAIRAELAKMEPFFPSGLKIVYPYDTTPFVKISIHEVVKTLVEAIILVFLVMYLFLQNFRATLIPTIAVPVVLLGTFAVLAAFGFSINTLTMFGMVLAIGLLVDDAIVVVENVERVMAEEGLPPKEATRKSMGQIQGALVGIAMVLSAVFVPMAFFGGSTGAIYRQFSITIVSAMALSVLVALILTPALCATMLKPIAKGDHGEGKKGFFGWFNRMFEKSTHHYTDSVGGILRSTGRYLVLYLIIVVGMAYLFVRLPSSFLPDEDQGVFMTMVQLPAGATQERTQKVLNEVTHYYLTKEKNNVESVFAVNGFGFAGRGQNTGIAFVSLKDWADRPGEENKVEAITMRATRAFSQIKDAMVFAFNLPAIVELGTATGFDFELIDQAGLGHEKLTQARNQLLAEAAKHPDMLTSVRPNGLEDTPQFKIDIDQEKAQALGVSINDINTTLGAAWGGSYVNDFIDRGRVKKVYVMSEAKYRMLPDDIGDWYVRAADGQMVPFSAFSSSRWEYGSPRLERYNGLPSMEILGQAAPGKSTGEAMELMEQLASKLPTGVGYDWTGMSYQERLSGNQAPSLYAISLIVVFLCLAALYESWSIPFSVMLVVPLGVIGALLAATFRGLTNDVYFQVGLLTTIGLSAKNAILIVEFAKDLMDKEGKGLIEATLDAVRMRLRPILMTSLAFILGVMPLVISTGAGSGAQNAVGTGVMGGMVTATVLAIFFVPVFFVVVRRRFSRKNEDIEHSHTVD	3	
AcrB with the C-terminal histidines removed (pET21a-acrBΔHis) (natural protein, E. coli, UniProt P31224 1-1047, looked up) MPNFFIDRPIFAWVIAIIIMLAGGLAILKLPVAQYPTIAPPAVTISASYPGADAKTVQDTVTQVIEQNMNGIDNLMYMSSNSDSTGTVQITLTFESGTDADIAQVQVQNKLQLAMPLLPQEVQQQGVSVEKSSSSFLMVVGVINTDGTMTQEDISDYVAANMKDAISRTSGVGDVQLFGSQYAMRIWMNPNELNKFQLTPVDVITAIKAQNAQVAAGQLGGTPPVKGQQLNASIIAQTRLTSTEEFGKILLKVNQDGSRVLLRDVAKIELGGENYDIIAEFNGQPASGLGIKLATGANALDTAAAIRAELAKMEPFFPSGLKIVYPYDTTPFVKISIHEVVKTLVEAIILVFLVMYLFLQNFRATLIPTIAVPVVLLGTFAVLAAFGFSINTLTMFGMVLAIGLLVDDAIVVVENVERVMAEEGLPPKEATRKSMGQIQGALVGIAMVLSAVFVPMAFFGGSTGAIYRQFSITIVSAMALSVLVALILTPALCATMLKPIAKGDHGEGKKGFFGWFNRMFEKSTHHYTDSVGGILRSTGRYLVLYLIIVVGMAYLFVRLPSSFLPDEDQGVFMTMVQLPAGATQERTQKVLNEVTHYYLTKEKNNVESVFAVNGFGFAGRGQNTGIAFVSLKDWADRPGEENKVEAITMRATRAFSQIKDAMVFAFNLPAIVELGTATGFDFELIDQAGLGHEKLTQARNQLLAEAAKHPDMLTSVRPNGLEDTPQFKIDIDQEKAQALGVSINDINTTLGAAWGGSYVNDFIDRGRVKKVYVMSEAKYRMLPDDIGDWYVRAADGQMVPFSAFSSSRWEYGSPRLERYNGLPSMEILGQAAPGKSTGEAMELMEQLASKLPTGVGYDWTGMSYQERLSGNQAPSLYAISLIVVFLCLAALYESWSIPFSVMLVVPLGVIGALLAATFRGLTNDVYFQVGLLTTIGLSAKNAILIVEFAKDLMDKEGKGLIEATLDAVRMRLRPILMTSLAFILGVMPLVISTGAGSGAQNAVGTGVMGGMVTATVLAIFFVPVFFVVVRRRFSRKNEDIEHSHTVD		3
TolC (tolC1392, coexpressed from pRSFduet-1-acrA-polyGS-acrZHis5-tolC1392) (natural protein) ENLMQVYQQARLSNPELRKSAADRDAAFEKINEARSPLLPQLGLGADYTYSNGYRDANGINSNATSASLQLTQSIFDMSKWRALTLQEKAAGIQDVTYQTDQQTLILNTATAYFNVLNAIDVLSYTQAQKEAIYRQLDQTTQRFNVGLVAITDVQNARAQYDTVLANEVTARNNLDNAVEQLRQITGNYYPELAALNVENFKTDKPQPVNALLKEAEKRNLSLLQARLSQDLAREQIRQAQDGHLPTLDLTASTGISDTSYSGSKTRGAAGTQYDDSNMGQNKVGLSFSLPIYQGGMVNSQVKQAQYNFVGASEQLESAHRSVVQTVRSSFNNINASISSINAYKQAVVSAQSSLDAMEAGYSVGTRTIVDVLDATTTLYNAKQELANARYNYLINQLNIKSALGTLNEQDLLALNNALSKPVSTNPENVAPQTPEQNAIAD	3	
